Patent US20230256057A1

Molecular target: IL-7 receptor (human) (UniProt P16871)
Assay: cell-based or functional assay

Chain of UniProt P16871 (P16871 21-459, chain 1 of 2): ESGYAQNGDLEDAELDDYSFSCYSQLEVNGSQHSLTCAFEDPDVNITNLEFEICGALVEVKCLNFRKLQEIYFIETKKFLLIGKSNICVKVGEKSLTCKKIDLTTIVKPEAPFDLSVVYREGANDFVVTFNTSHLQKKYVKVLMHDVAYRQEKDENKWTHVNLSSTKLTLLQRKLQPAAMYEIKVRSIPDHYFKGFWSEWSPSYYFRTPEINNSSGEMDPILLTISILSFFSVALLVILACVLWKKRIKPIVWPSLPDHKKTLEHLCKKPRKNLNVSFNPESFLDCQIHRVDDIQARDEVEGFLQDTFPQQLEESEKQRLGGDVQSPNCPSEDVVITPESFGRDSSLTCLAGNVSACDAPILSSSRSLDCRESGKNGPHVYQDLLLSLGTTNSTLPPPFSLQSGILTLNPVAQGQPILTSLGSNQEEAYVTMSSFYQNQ
Chain of UniProt P16871 (P31785 23-369, chain 2 of 2, further chain): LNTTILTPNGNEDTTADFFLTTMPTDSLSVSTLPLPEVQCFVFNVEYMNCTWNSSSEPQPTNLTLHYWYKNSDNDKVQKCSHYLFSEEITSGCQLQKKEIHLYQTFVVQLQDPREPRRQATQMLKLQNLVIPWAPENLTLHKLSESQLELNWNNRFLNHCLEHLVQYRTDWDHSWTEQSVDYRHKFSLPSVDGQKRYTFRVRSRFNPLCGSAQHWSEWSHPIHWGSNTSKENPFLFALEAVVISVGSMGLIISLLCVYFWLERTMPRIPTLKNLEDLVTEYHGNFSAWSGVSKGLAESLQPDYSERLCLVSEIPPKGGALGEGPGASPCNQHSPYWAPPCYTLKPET

pSTAT5 expression in CD3+ T cells of COVID19+ patients' whole blood, ratio to unstimulated condition; supernatant dilution 1/2.5: 6.5 fold | pSTAT5 expression in CD3+ T cells of COVID19+ patients' whole blood, ratio to unstimulated condition; supernatant dilution 1/5: 5.7 fold | pSTAT5 expression in CD3+ T cells of COVID19+ patients' whole blood, ratio to unstimulated condition; supernatant dilution 1/10: 4.9 fold
Substance: human interleukin-7 fused to human Fc sequence of IgG2 (hIL-7-Fc) (Fc fusion)
